Measurements published in publication PMC7353165 (Molecular Biology of the Cell, 2020).

Biological target: T1, WT-EphB1-YFP (mouse EphB1 C-terminal YFP-tagged) (mouse, UniProt Q8CBF3 18-984)
T1 sequence (looked up): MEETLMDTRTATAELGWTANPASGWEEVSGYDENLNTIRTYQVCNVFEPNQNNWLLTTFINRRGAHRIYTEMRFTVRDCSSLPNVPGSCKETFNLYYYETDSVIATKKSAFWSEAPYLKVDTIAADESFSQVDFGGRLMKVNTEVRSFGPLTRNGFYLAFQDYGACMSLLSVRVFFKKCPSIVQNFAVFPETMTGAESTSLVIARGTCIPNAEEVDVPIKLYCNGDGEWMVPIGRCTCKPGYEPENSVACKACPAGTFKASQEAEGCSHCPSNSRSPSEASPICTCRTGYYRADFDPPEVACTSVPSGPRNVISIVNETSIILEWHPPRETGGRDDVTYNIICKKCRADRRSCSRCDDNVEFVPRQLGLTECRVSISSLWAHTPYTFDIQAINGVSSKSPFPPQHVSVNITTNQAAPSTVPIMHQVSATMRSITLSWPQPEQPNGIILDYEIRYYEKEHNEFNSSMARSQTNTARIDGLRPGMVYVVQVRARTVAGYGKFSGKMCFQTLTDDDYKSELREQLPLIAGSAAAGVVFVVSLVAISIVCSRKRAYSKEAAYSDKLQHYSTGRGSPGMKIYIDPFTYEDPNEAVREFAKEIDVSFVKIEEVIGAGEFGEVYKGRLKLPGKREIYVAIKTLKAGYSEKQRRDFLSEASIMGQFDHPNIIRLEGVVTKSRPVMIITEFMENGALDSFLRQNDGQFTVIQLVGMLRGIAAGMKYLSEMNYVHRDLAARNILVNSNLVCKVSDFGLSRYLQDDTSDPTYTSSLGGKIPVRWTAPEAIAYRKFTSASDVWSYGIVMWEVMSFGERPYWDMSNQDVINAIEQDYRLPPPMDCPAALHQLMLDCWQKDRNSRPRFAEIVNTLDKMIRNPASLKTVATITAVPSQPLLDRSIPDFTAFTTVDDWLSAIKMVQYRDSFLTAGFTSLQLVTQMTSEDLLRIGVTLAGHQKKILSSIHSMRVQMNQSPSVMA
Assay: FRET or BRET

fold FRET intensity against EphB1^∆808-815-YFP with WT-Cav-1-CFP: 4 fold
B1: WT-Cav-1-CFP (C-terminal CFP-tagged Cav-1) (natural protein, UniProt Q03135 1-178, looked up)
chain: MSGGKYVDSEGHLYTVPIREQGNIYKPNNKAMADELSEKQVYDAHTKEIDLVNRDPKHLNDDVVKIDFEDVIAEPEGTHSFDGIWKASFTTFTVTKYWFYRLLSALFGIPMALIWGIYFAILSFLHIWAVVPCIKSFLIEIQCISRVYSIYVHTVCDPLFEAVGKIFSNVRINLQKEI
